A short description of the data set: soluble on expression in E. coli; label from the status in PepcDB or PDB records.
For the sequence “MIARRNPIEQLPAIAQDPDKFGVLLSAAEFRTHLVESIRQARKRIYLVALYLENDDAGREILTELYAAKQRNPGLEIHICVDWHRAQRGLIGAAESEGNAAMYRDFAQQHEHCIPVYGIPVRGREVFGVLHLKGFIIDDQVIYSGASLNNVYLQFHGRYRFDRYHTLENAELADSMVHFIQQEMLAHPAVNNLACGSKPTTKEIKSDIRQFRASLAQANYQFAKQKVNEGQVAVTPLVGLGRRRNRLNQSIIQLLASAKDEVFICTPYFNFPPSIAKEVKKALRRGVKVHIVIGDKTANDFYIAPEEPFKTIGGLPYLYELNLRRFAKANEAHIASRKLSIHLWKHENHSFHLKGIWVDKRYMLITGNNLNPRAWKLDLENAILIRDDYHHLTTKFEAEIDNILQHTQLICTYKQIEKPEHYPEKVQRLVRRIMRLKADRVLKQILLEHHHHHH”, the “soluble on expression in E. coli” value is “soluble”.

Consider “MLAMVNKVLDWIRSLFWKEEMELTLVGLQNSGKTTFVNVIASGQFTEDMIPTVGFNMRKITKGNVTIKLWDIGGQPRFRSMWERYCRGVNAIVFMVDAADEEKLEASRNELMQLLDKPQLDAIPVLVLGNKKDLPGALDERQLIERMNLSSIQNREICCYSISCKEKENIDITLQWLIDHSKAQR”, for which the “soluble on expression in E. coli” value is on record as “not soluble”.

In the case of “MSKQPMTPFEAIGGEQCIAILVDTFYSYVSKHPDLSPIFPEDLTETARKQKQFLTQYLGGPNLYTEEHGHPMLRARHLPFEITPKRAEAWLSCMEQAMDDTGVHGHIREFVFERLALTAQHMVNTPNETGEV”, the “soluble on expression in E. coli” value was “not soluble”.

For the sequence “DKSRIAHMIDEWDGKEIIYPDDLVFTTMGEDTVKWFLKDSRYTIVTYADSIGCMGCKLKLPVWKDFISYLDSVSDHTVKVIFILHPRDKKEMVHLLEYNDFSYPVCLDIKGSFDKINKIPSNLAFQTFLLDNRNKVIAIGNPIHNPNVRTLYLNLILSDSICKS”, the “soluble on expression in E. coli” value is reported as “not soluble”.

Regarding “MKAYTKYLTFNTKKRRELIRITDEVKKAVEESEVKEGLCLVSSMHLTSSVIIQDDEEGLHEDIWEWLEKLAPYRPDYKHHRTGEDNGDAHLKNLLTHLQVVLPITNGKLDLGPWQEIFYAEFDGQRPKRVVIKIIGE”, the “soluble on expression in E. coli” value is “soluble”.

Turning to “MGSDKIHHHHHHMSKVFSPFQFDNSFVRSMEGFFEPWQGARVPAPAMVCFNQQLADELGMDADAMEDSRLAAFFCGMLTAEGSEPVAMAYAGHQFGGFSPRLGDGRALLLGEVKDIHGRRRDLHLKGSGRTNFSRGGDGKAVLGPVLREYLMGEAMHALGIPTTRALAAVTTGEDIYRDGIKPGAVLARVASSHIRVGTFEYAAARGDHEGLRELVNYSLKRHYPELEDEQTPALALLNSVSRAQAKLVAKWMGVGFIHGVMNTDNVTISGETIDYGPCAFMDTYDARTVFSSIDHEGRYAYGNQPGIARWNLARFAEALLPLLAEDESEALAHAQTVLDGFAEVYTNEWLAVFAAKFGLKTAQDGDLELFMDFLTLLGELKLDFTRSFRALANSLGDTAAAGIEALTADSARFAPWLTRWHERLGREYASQSDFASDARALMQGVNPVYIPRNHLLQGALDSAEAGDMAPFERLLEVVCRPYEELAGYGAYALGAPEDFGPFRTFCGT”, the “soluble on expression in E. coli” value is given as “not soluble”.

Regarding “MSLLDFEKPLFEIRNKIESLKESQDKNDVDLQEEIDMLEASLERETKKIYTNLKPWDRVQIARLQERPTTLDYIPYIFDSFMELHGDRNFRDDPAMIGGIGFLNGRAVTVIGQQRGKDTKDNIYRNFGMAHPEGYRKALRLMKQAEKFNRPIFTFIDTKGAYPGKAAEERGQSESIATNLIEMASLKVPVIAIVIGEGGSGGALGIGIANKVLMLENSTYSVISPEGAAALLWKDSNLAKIAAETMKITAHDIKQLGIIDDVISEPLGGAHKDVEQQALAIKSAFVAQLDSLESLSRDEIANDRFEKFRNIGSYIEEGHHHHHH”, the “soluble on expression in E. coli” value is on record as “not soluble”.

Turning to “MSVKVAFIRHHNLWIKVDGKEIQITKGEYITGPKWSYDGEWLAYVKGKKQSILELYRLKDGKKVTPFHSEASNYQWSPTENIIAFIFTGTLNTFDVEKKNADFENVSAGVGDYAWYPDGKNFLVSSEAHLLPTGWTGAQLYEVQKDAHMNPHKMKHLYALPNEHDDFLALVASGFKWSPDQKWISFLAVPTASWSADSNTLCLVRADGSRFEKVDQMLLNAQWFQWAPSKNILAYIEGSGRVALENKHLKVKELPALQQNIFTPKGYVDWDFVWKNDRVIIVSRAKEAGIETPPEKRPLPSLYEVDSTSNAQHQITKKTNKQGDYHPIFMKKSNQLIWIRSDRKKADVWLAHKDRKQEKKWIENIDVPAWYYEKWNWGNVISVKEELEHHHHHH”, the “soluble on expression in E. coli” value is “soluble”.

Take “MGSAEQACGCKGARFCALCETTERVKKLRVVEDKHVNYKVFIYDHIRQIAIPTTNLNSQSSLEDIIDESTSCQSVSTDGSIEIDGLTLIHNFLSESEESKILNMIDTVEWAQSQSGRRKQDYGPKVNFKHKKVKTDTFVGMPEYADMLLNKMSEYDVKKLGNYQPFEMCNLEYEEVKKSAIEMHQDDMWIWGNRLIRYEFLFKKVLFN”: the “soluble on expression in E. coli” value is given as “soluble”.

As to “ASNIHRIQQIVEAAERYNRKVAVSGRSMENIVAVAIELGYLKVKEGVLIGIDAINRYADNKIVIITTGSQGEPMSALTRMAAQEHKKVKIQEGDMVVISANPIPGNEKLVSRVINQLFKKGAEVIYEALADVHVSGHACQEELKLMHTLIKPRFFIPVHGEYRHLKQHKELATNLGMPKANVVIPEIGGVIELTRSSIKKTDTVVAGKVFVDGLGVGDVGNIVLRDRKHLSQDGIVTVVVTIEKVSGTVIAGPDIISRGFVYVRESEDLMEESKEIVKTALLECEEKHITEWATIKSNIKDVLRIFLYERTKRKPMILPIIME”, the “soluble on expression in E. coli” value is given as “not soluble”.

For the sequence “VVQPADIDVPETPARPVLVVDFGAQYAQLIARRVREARVFSEVIPHTASIEEIRARQPVALVLSGGPASVYADGAPKLDPALLDLGVPVLGICYGFQAMAQALGGIVAHTGTREYGRTELKVLGGKLHSDLPEVQPVWMSHGDAVTAAPDGFDVVASSAGAPVAAFEAFDRRLAGVQYHPEVMHTPHGQQVLSRFLHDFAGLGAQWTPANIANALIEQVRTQIGDGHAICGLSGGVDSAVAAALVQRAIGDRLTCVFVDHGLLRAGERAQVQRDFVAATGANLVTVDAAETFLEALSGVSAPEGKRKIIGRQFIRAFEGAVRDVLDGKTAEFLVQGTLYPDVVESGGGSGTANIKSHHNVGGLPDDLKFTLVEPLRLLFKDEVRAVGRELGLPEEIVARQPFPGPGLGIRIVGEVTAKRLDTLRHADSIVREELTAAGLDNQIWQCPVVLLADVRSVGVQGDGRTYGHPIVLRPVSSEDAMTADWTRVPYEVLERISTRITNEVAEVNRVVLDITSKPPATIEWE”, the “soluble on expression in E. coli” value is reported as “not soluble”.

Consider “IQILSKSKLEKCEKTSDSGNLNCSTKIVLNLAVPSGSSGGEASIVAEIVEVEDNSSSNMQTVRIPPVITVNKSAAYALYDLTYIRDVPYKPQEYHVTTRKCEPDAGPDIVQICERLRDEKGNVLEQTQPICCPCGPQRRMPSSCGDIFDKMIKGKANTAHCLRFPGDWFHVFGIGQRSLGFSVRVELKTGTRVSEVIIGPENRTATANDNFLKVNLIGDFGGYTSIPSFEDFYLVIPREAAEAGQPGSLGANYSMWMLLERVRFTLDGLECNKIGVGYEAFNTQPNFCSSPYWSCLHNQLWNFRESDINRIDRHQLPLYGLEGRFERINQHPNAGPHSFSIGVTETLNTNLMIELRADDIEYVFQRSPGKIINIAIPTFEALTQFGVAAVIIKNTGEVEASYSLTFDCSKGVAFVEEQFFIIKPKAVTTRSFKLYPTKDQAAKYICTAILKDSQFSEVDRAECQFSTTATVLDNGTQVTNPFQIPETQPKGFFDSIRILWTKIINGLVDFITGDTCRNKCSSFFDFSCHIQYVCLS”, for which the “soluble on expression in E. coli” value was “not soluble”.

“MAHHHHHHMFFCPFCSTLLLVVPHVEGNALVCATCRYVHSVASASPQVPRNAFGEPILTIQHSFVAHNRQLMDAEEDPAMEAAASSSAAACHTTAAFTPVVKAETSAEGGQITTIPCQNEDNPCQSTKAYFIQIQMRSADEPATVFFKCVECGHQWRQD”: the “soluble on expression in E. coli” value is on record as “not soluble”.

Regarding “MGSDKIHHHHHHMVTGASGFVGSALCCELARTGYAVIAVVRRVVERIPSVTYIEADLTDPATFAGEFPTVDCIIHLAGRAHILTDKVADPLAAFREVNRDATVRLATRALEAGVKRFVFVSSIGVNGNSTRQQAFNEDSPAGPHAPYAISKYEAEQELGTLLRGKGMELVVVRPPLIYANDAPGNFGRLLKLVASGLPLPLDGVRNARSLVSRRNIVGFLSLCAEHPDAAGELFLVADGEDVSIAQMIEALSRGMGRRPALFTFPAVLLKLVMCLLGKASMHEQLCGSLQVDASKARRLLGWVPVETIGAGLQAAGREYILRQRERRK”, the “soluble on expression in E. coli” value is on record as “not soluble”.

With “MSLELIEENDFDAIYIGNSKVMIKDYRGFVATLRILREKFPNAVLITDLEPFFYPLAVYLGVDAFDVRSLKIYSYEGLGFTPFSPVIWDRPNDPIEFAREMIKIIKIAIQEGKLRYLVENFLPTVMNVGILRIADKEHGDYLEKYTPVHDKTVVFISEHSISRPEVFRWRKRIEERFEPPKGIDLLLIFPCSAKKPYSRSRSHMMYRKVMKEALGEKVHRVHELVVTSPYGVVPREWEWLAKYDIVVTGHWSESEVRFAGELLAQTIEKYPDIPIVAHVEGGYREAVKYAMELVNRDVIFTAVGSSTISKESLDKLKKTLKEFDLRDAEKDYRRYRFYENVRKVFDYYFGLGAGEAVLPENAQIVGSKMLRLIVNNSQTGTFQEGVISVTPFGMQRIYDKLNSYWVEVDFDIRGDVFAAGVERADEGIRPNDIVGIVRDGRVVAVGRAVLSGEEMVRAKKGIAVRVRKRVKNKEGHHHHHH”, the “soluble on expression in E. coli” value was “not soluble”.

With “MSLVTIKEIASAVGVSSATVSRVLNYDPTLSISTRKRQAIIETAEALNYATPRNRNRAAAQAVGSGLKIALVHFLDPAQELADPYYVGVRLGIESRCQALNSDVVKVFLTGNTPEATILEGASGVVAVGHYYGDELEWLRRHSRHLVFADYAPAGDMEDTVLSDVSQAMIRLLEAVHAMGYRRIGFIGWIDAFYGPDNIHSERRCHTYIDWMTKTGLFDPELCLVDPMTPDSGYRLAKAMLSKPNPPKILITCNDNMALGAYRAINEMGLRIPDDVAVASFNDIPVAQFLGPPLSTVKIPAELIGETAVDLLVERLSGREVAKKVVFGTEIIWRASTEGHHHHHH”, the “soluble on expression in E. coli” value was “soluble”.

Consider “MKVYLHFSPQFFANTYLIGNEITKEAVIIDPAKITEKMIHQIEKNEFNLKAVLLTHDLEHPYETGLNTILKIYSPKVYAGSCFSENVTINTLRGDGCIDVAGYSVRYFAIPAHSSYSYMFQIENMVFTGTSLSAGMIGQTSNMYAERTLRNILKTKLMCFEDNLIIMPFYGPPTSIGVERKYNASFFQDFEKKPFLEHHHHHH”, for which the “soluble on expression in E. coli” value was “soluble”.

Consider “MEALKRKIEEEGVVLSDQVLKVDSFLNHQIDPLLMQRIGDEFASRFAKDGITKIVTIESSGIAPAVMTGLKLGVPVVFARKHKSLTLTDNLLTASVYSFTKQTESQIAVSGTHLSDQDHVLIIDDFLANGQAAHGLVSIVKQAGASIAGIGIVIEKSFQPGRDELVKLGYRVESLARIQSLEEGKVSFVQEVHS”, for which the “soluble on expression in E. coli” value was “soluble”.

Take “MRDSPTHKEQRAQNTMSDQMPFPFNNFTYFFTLFSKFFSSFHHCTCSLSVSRQYLALDGIYHPLRAAFPNNSTLRRHFTKNRTPRHTGFSPSMTSCSKEHRQGTAPKLPSPNYNSGTEGTRFQI”: the “soluble on expression in E. coli” value is “not soluble”.

With “DALAVALLQARGFSAEDFALSHPGGALGRKLLLKLSDIMHFGNALPKVSPDALIRDALLEISEKGLGMTAIVDEHDAMLGIFTDGDLRRTLDKRIDIHTTAIGEVMTKNPTTAHPEMLAVEGLNLMQNKNINALILCKEDKIVGALNMHDLLKAGVM”, the “soluble on expression in E. coli” value was “not soluble”.

(Values after the DeepSol protein solubility set.)
